According to patent US20080044436A1, “Method for Screening and Compositions for Treating Cancers” (priority 2004, published 2008):

Target: T1, Sp1 (Homo sapiens, UniProt P08047)
T1 construct: made in house
Assay: GST pull-down, TReP-132 and Sp1
Type: binding
Conditions: GST pull-down with 35S-Sp1, vs GST alone
Procedure: FIG. 13D: GST-TReP-132 proteins were incubated with ^35-[S]-Sp1 and immobilized on a glutathione-Sepharose column. Specific interactions were analyzed by comparison with the results obtained by incubating GST alone with ^35-[S]-Sp1. Sp1 input: 1/10th of radiolabelled Sp1 level used in the incubations.
In order to evaluate the interaction of TReP-132, Sp1, ER and PR, the wt and mutant GST-TReP-132 fusion proteins were expressed, then immobilized on glutathione-Sepharose as described (Frangioni and Neel, 1993; Monte et al., 1998). The ^35S-[Sp1], ^35S-[ER] and ^35S-[PR-B] proteins were synthesized in vitro using a rabbit reticulocyte lysate and T7 RNA polymerase system as directed by the manufacturer (Promega Corporation, Madison, Wis.). Proteins which bound, then detached from the Sepharose after being heated to boiling in SDS buffer were then separated on a 10% SDS-PAGE gel. The gels were stained with Coomassie blue, dried and autoradiographed.

T1 sequence (P08047 whole entry): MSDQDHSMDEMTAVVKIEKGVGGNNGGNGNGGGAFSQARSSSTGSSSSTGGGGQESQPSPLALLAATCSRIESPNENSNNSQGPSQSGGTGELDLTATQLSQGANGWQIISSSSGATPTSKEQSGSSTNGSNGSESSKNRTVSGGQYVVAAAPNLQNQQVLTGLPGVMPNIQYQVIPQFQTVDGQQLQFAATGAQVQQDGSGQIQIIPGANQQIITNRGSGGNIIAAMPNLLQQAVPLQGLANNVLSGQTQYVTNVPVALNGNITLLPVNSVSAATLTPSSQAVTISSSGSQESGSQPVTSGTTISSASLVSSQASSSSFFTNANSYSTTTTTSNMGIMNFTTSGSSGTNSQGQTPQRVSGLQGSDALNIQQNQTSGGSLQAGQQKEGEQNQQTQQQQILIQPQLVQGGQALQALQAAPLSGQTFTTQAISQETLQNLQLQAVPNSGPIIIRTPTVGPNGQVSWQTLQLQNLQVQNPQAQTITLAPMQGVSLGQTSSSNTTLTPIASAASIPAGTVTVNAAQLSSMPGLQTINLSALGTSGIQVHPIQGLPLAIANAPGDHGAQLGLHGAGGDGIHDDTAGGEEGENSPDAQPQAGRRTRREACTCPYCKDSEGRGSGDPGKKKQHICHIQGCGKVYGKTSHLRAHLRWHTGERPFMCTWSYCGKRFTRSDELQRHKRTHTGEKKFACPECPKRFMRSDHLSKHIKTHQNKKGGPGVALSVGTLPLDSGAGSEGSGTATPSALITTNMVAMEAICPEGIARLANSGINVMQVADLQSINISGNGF

B1: GST-TReP-132: in-frame fusion of the TReP-132 coding region downstream of GST in pGEX-2TK (protein)
chain: MGDQQLYKTNHVAHGSENLFYQQPPLGVHSGLNHNYGNAVTGGGMDAPQASPISPHFPQDTRDGLGLPVGSKNLGQMDTSRQGGWGSHAGPGNHVQLRGNLANSNMMWGAPAQAEPTDGYQYTYSQASEIRTQKLTSGVLHKLDSFTQVFANQNLRIQVNNMAQVLHTQSAVMDGAPDSALRQLLSQKPMEPPAPAIPSRYQQVPQQPHPGFTGGLSKPALQVGQHPTQGHLYYDYQQPLAQVPVQGGQPLQAPQMLSQHMQQMQQHQYYPPQQQQQAGQQRISMQEIQTQPQQIRPSQPQPPPQQQQPQQLQLQQRQGSMQIPQYYQPQPMMQHLQEQQQQQMHLQPPSYHRDPHQYTPEQAHTVQLIPLGSMSQYYYQEPQQPYSHPLYQQSHLSQHQQREDSQLKTYSSDRQAQAMLSSHGDLGPPDTGMGDPASSDLTRVSSTLPHRPLLSPSGIHLNNMGPQHQQLSPSAMWPQMHLPDGRAQPGSPESSGQPKGAFGEQFDAKNKLTCSICLKEFKNLPALNGHMRSHGGMRASPNLKQEEGEKVLPPQPQPPLPPPPPPPPPPQLPPEAESLTPMVMPVSVPVKLLPPKPSSQGFTNSTVAAPSARDKPASSMSDDEMPVLEIPRKHQPSVPKAEEPLKTVQEKKKFRHRPEPLFIPPPPSYNPNPAASYSGATLYQSQLRSPRVLGDHLLLDPTHELPPYTPPPMLSPVRQGSGLFSNVLISGHGPGAHPQLPLTPLTPTPRVLLCRSNSIDGSNVTVTPGPGEQTVDVEPRINIGLRFQAEIPELQDISALAQDTHKATLVWKPWPELENHDLQQRVENLLNLCCSSALPGGGTNSEFALHSLFEAKGDVMVALEMLLLRKPVRLKCHPLANYHYAGSDKWTSLERKLFNKALATYSKDFIFVQKMVKSKTVAQCVEYYYTWKKIMRLGRKHRTRLAEIIDDCVTSEEEEELEEEEEEDPEEDRKSTKEEESEVPKSPEPPPVPVLAPTEGPPLQALGQPSGSFICEMPNCGAVFSSRQALNGHARIHGGTNQVTKARGAIPSGKQKPGGTQSGYCSVKSSPSHSTTSGETDPTTIFPCKECGKVFFKIKSRNAHMKTHRQQEEQQRQKAQKAAFAAEMAATIERTTGPVGAPGLLPLDQLSLIKPIKDVDILDDDVVQQLGGVMEEAEVVDTDLLLDDQDSVLLQGDAEL
modifications: left off: a dimerising Fc or GST; large carriers; small tags and cut ends
notes: in-frame fusion of the TReP-132 coding region downstream of GST in pGEX-2TK
- interaction with Sp1: protein/protein itneraction was observed
